These results are taken from patent US20240124606A1.

One experiment has as its target mouse CD73 (mouse) (UniProt Q61503). Nature of the experiment: flow cytometry, murine E0771 breast cancer cells, isotype control; PE against SSC-A. In general terms: Flow cytometry measures light scatter and fluorescence of single cells or particles in a stream.
In experiment [1] the target is T1, human CD73 (human) (UniProt P21589).
T1 sequence: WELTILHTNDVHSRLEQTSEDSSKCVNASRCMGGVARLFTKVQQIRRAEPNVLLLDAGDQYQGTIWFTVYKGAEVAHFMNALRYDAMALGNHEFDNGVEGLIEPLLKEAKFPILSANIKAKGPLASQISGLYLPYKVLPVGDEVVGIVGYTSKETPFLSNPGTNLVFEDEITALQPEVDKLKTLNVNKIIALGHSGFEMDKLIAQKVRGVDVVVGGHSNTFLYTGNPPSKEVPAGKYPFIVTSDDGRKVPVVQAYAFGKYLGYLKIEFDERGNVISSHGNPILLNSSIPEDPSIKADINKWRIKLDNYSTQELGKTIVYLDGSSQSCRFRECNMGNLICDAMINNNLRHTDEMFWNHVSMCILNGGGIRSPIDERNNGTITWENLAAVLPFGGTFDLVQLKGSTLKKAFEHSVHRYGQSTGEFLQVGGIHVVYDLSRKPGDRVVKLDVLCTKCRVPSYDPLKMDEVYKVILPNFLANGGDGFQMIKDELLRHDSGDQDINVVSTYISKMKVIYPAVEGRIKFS
Kind of experiment: flow cytometry, human PC3 prostate cancer cells, isotype control plot above the E7 plot; CD73-PE against SSC-A.

The target in experiment [2] is T1, human CD73 (human). Nature of the experiment: flow cytometry, human PC3 prostate cancer cells, isotype control plot above the 2C5 plot (its gate is drawn larger than in the other plots); CD73-PE against SSC-A.
Experiment [3] addresses T1, human CD73 (human). Kind of experiment: flow cytometry, human PC3 prostate cancer cells, 10 ug/ml antibody, PE anti-mIgG secondary antibody; CD73-PE against SSC-A.

Sequence of UniProt Q61503 (Q61503 29-551 limits assumed): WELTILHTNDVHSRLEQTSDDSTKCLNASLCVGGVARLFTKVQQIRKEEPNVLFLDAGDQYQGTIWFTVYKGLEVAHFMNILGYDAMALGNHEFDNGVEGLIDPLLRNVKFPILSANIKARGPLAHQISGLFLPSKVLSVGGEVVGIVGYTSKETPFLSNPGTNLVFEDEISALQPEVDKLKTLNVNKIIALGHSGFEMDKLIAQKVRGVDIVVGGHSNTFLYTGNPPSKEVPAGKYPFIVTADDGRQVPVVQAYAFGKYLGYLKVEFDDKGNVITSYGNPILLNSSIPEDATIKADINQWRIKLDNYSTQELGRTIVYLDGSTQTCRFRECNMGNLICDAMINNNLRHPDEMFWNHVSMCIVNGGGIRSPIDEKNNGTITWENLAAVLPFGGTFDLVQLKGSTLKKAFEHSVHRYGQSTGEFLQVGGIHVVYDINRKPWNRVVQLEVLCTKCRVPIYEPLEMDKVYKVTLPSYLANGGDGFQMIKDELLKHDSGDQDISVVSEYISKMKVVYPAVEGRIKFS

In the experiment with mouse CD73 (mouse), Isotype (antibody) displayed a percent of cells in the CD73 gate of 0.8. Moreover, the percent of cells in the CD73-PE gate with human CD73 (human) [1] stood at 1.02; in the experiment with human CD73 (human) [2], 2.84.

B1: 2C5 (a commercially-available anti-CD73 mAb, Astrazeneca) (antibody, from another filing, V domains shown)
VH: EVQLLESGGGLVQPGGSLRLSCAASGFTFSSYAMSWVRQAPGKGLEWVSAISGSGGSTYYADSVKRRFTISRDNSKNTLYLQMNSLRAEDTAVYYCARDKGYYWYMDVWGQGTMVTVSS
VL: QSVLTQPPSVSVSPGQTASITCSGDKVGDKYASWYQQKPGQSPVLVIYEDTKRLSGIPERFSGSNSGNTATLTISGTQAMDEADYYCQAWDTSFWVFGGGTKLTVL
B1 came in with a percent of cells in the CD73-PE gate in the experiment with human CD73 (human) [3] of 99.7.
